Measurements: US7880053B2, “Methods of using transformed plants expressing plant-derived acyl-coenzyme-A-binding proteins in phytoremediation” (priority 2007, dated 2011)
“Also recorded” adds a separate entry of the source.

Key:
[1] = Heavy-metal-binding assay using metal-chelate affinity chromatography, Cd(II)-equilibrated matrix; conditions: FIG. 2C
Source text: (§1) The coding regions of ACBP1, ACBP2 and ACBP6 were generated by RT-PCR for construction of pGEM-T EASY (Promega) derivatives for in vitro transcription/translation. Primers used in RT-PCR were as follows: ACBP1 (ML190 (SEQ ID NO:20) and ML917 (SEQ ID NO:17), ACBP2 (ML902 (SEQ ID NO:21) and ML903 (SEQ ID NO:22)), and ACBP6 (ML812 (SEQ ID NO:23) and ML751 (SEQ ID NO:2)). The PCR products were subsequently cloned into pGEM-T EASY vector (Promega) for in vitro transcription/translation using the TNT® T7/SP6 Coupled Wheat Germ Extract System (Promega) following the manufacturer's instruction. Pb(II)-, Cd(II)-, and Cu(II)-equilibrated matrices for metal-binding assays were prepared by stripping Ni-NTA agarose (Qiagen) of nickel and re-equilibrating with 0.1 M Pb(NO3)2 (Aldrich), CdCl2 (Aldrich), or CuCl2 (Aldrich). Twenty μl of Pb(II)-, Cd(II)-, or Cu(II)-equilibrated matrix, 545 μl of 50 mM KH2PO4, 300 mM NaCl, pH 7.4, and [^35S]methionine-labeled protein were added to a microfuge tube (Dykema et al., Plant Mol. Biol. 41: 139-150, 1999) and rotated on a wheel at 4° C. for 1 h. Subsequently, the matrix was washed 3 times with 1.0 ml of 50 mM KH2PO4, 300 mM NaCl, pH 7.5. […]

[2] = Heavy-metal-binding assay using metal-chelate affinity chromatography, Cu(II)-equilibrated matrix; conditions: FIG. 2C
Source text: as §1

[3] = Heavy-metal-binding assay using metal-chelate affinity chromatography, Pb(II)-equilibrated matrix; conditions: for binding of in vitro translated ACBP to Pb(II): [35S]methionine-labeled protein, SDS-PAGE autoradiography, FIG. 2B
Source text: The coding regions of ACBP1, ACBP2 and ACBP6 were generated by RT-PCR for construction of pGEM-T EASY (Promega) derivatives for in vitro transcription/translation. Primers used in RT-PCR were as follows: ACBP1 (ML190 (SEQ ID NO:20) and ML917 (SEQ ID NO:17), ACBP2 (ML902 (SEQ ID NO:21) and ML903 (SEQ ID NO:22)), and ACBP6 (ML812 (SEQ ID NO:23) and ML751 (SEQ ID NO:2)). The PCR products were subsequently cloned into pGEM-T EASY vector (Promega) for in vitro transcription/translation using the TNT® T7/SP6 Coupled Wheat Germ Extract System (Promega) following the manufacturer's instruction. Pb(II)-, Cd(II)-, and Cu(II)-equilibrated matrices for metal-binding assays were prepared by stripping Ni-NTA agarose (Qiagen) of nickel and re-equilibrating with 0.1 M Pb(NO3)2 (Aldrich), CdCl2 (Aldrich), or CuCl2 (Aldrich). Twenty μl of Pb(II)-, Cd(II)-, or Cu(II)-equilibrated matrix, 545 μl of 50 mM KH2PO4, 300 mM NaCl, pH 7.4, and [^35S]methionine-labeled protein were added to a microfuge tube (Dykema et al., Plant Mol. Biol. 41: 139-150, 1999) and rotated on a wheel at 4° C. for 1 h. Subsequently, the matrix was washed 3 times with 1.0 ml of 50 mM KH2PO4, 300 mM NaCl, pH 7.5. The binding protein was eluted with 200 μl of 50 mM KH2PO4, 300 mM NaCl, 500 mM imidazole, pH 4.5, followed by extraction with 200 μl of 2% SDS, 50 mM DTT, heating at 85° C. for 3 min and analysis by SDS-PAGE followed by autoradiography.

[4] = system: ACBP1 to ACBP5 mRNA; experiment: RT-PCR of ACBP transcripts in root after Pb(II) treatment; format: in vivo, Arabidopsis thaliana; conditions: 1 mM Pb(NO3)2, 24 h, 3-week-old Col-0 seedlings, FIG. 1
Description: (§2) Arabidopsis thaliana wild-type Columbia (ecotype Col-0), ACBP1- and ACBP3-overexpressing transgenic plants (ecotype Col-0) were grown under 8 h dark at 21° C. and 16 h light at 23° C. cycles. For Pb(II)-inducible gene expression analysis, Arabidopsis seedlings were grown for 3 weeks in continuous light, treated with 1 mM Pb(NO3)2 or water (as control), and shoot and root samples were collected at 24 h post-treatment. For Pb(II) sensitivity tests, Arabidopsis seedlings were surface-sterilized and grown on Murashige and Skoog (Physiol. Plant. 15: 473-497, 1962) medium containing 2% sucrose with or without 0.75 mM Pb(NO3)2 (Sigma-Aldrich, St. Louis) for 2 to 3 weeks.
(§3) To determine if the regulation of Arabidopsis ACBP mRNAs responds to Pb(II) stress, we performed reverse transcription-PCR(RT-PCR) using root tissue RNA following treatment with 1 mM Pb(NO3)2. For RT-PCR, total RNA was extracted with TRIzol (Invitrogen) reagent, according to the manufacturer's protocol, from roots of 3-week-old wild-type Arabidopsis (Col-0) seedlings in the presence or absence (water as control) of 1 mM Pb(NO3)2. RT-PCR analysis was performed as according to the manufacturer (Invitrogen Cat No. 12371-019). Specific primers were designed based on mRNA sequences. […]

[5] = system: ACBP6 transcript; experiment: as above; format: in vivo, Arabidopsis thaliana; conditions: 1 mM Pb(NO3)2, 24 h, 3-week-old Col-0 seedlings, FIG. 1
Description: as §2, §3

[6] = Lead-binding assay, fluorescence of dansylated (His)6-ACBP; conditions: 1 to 9 μM Pb(II), FIG. 2A
Description: Lead-binding assays and fluorescence measurements were carried out according to Funaba and Mathews (Mol. Endocrinol. 14:1583-1591, 2000) with minor modifications. Briefly, 3.2 μM of each purified (His)6-ACBP protein which was equilibrated in 20 mM phosphate buffer (pH 7.2) with 200 mM NaCl, were labeled with 8 μl of 200 mM dansyl aziridine (Molecular Probes, Cat. No. D151) and reacted for 2 h in a 1.5 ml Eppendorf tube at room temperature. The dansylated (His)6-ACBP proteins were then distributed to 8 wells of a 96-well microtiter plate (Nunc Cat. No. 236105). Various concentrations (0, 1.0, 2.0, 3.0, 4.0, 5.0, 7.0 and 9.0 μM) of Pb(NO3)2 (Aldrich, Cat. No. 203580) solutions were added and the reactions were incubated at room temperature for 1 h.
Fluorescence measurements were performed using a BIO-TEK FL600 Fluorescence Plate Reader (BIO-TEK Instrument, INC, USA) with excitation wavelength set at 360/40 nm and emission wavelength set at 530/25 nm. Prior to binding with lead, the dansyl aziridine coupled (His)6-ACBP recombinant proteins are sensitive to the conformational changes. After binding to Pb(II) molecules, the dansylated (His)6-ACBP recombinant proteins would change their conformations and the dye will show an increase in fluorescence excitation. […] Each experiment was repeated three times to ascertain results.

[7] = EDTA at 50 mM final concentration
[8] = [35S]methionine-labeled protein

In the case of O=C(O)CN(CCN(CC(=O)O)CC(=O)O)CC(=O)O [EDTA, ethylenediaminetetraacetic acid, reference compound], the “effect on binding of ACBP2 to Cd(II)” value [1, 7] is reported as “inhibited”, the “effect on binding of ACBP2 to Cu(II)” value [2, 7] is reported as “inhibited” and the “effect on binding of ACBP2 to Pb(II)” value ([3]; EDTA at 50 mM final concentration, FIG. 2C) is reported as “inhibited”.

For O=[N+]([O-])[O-].O=[N+]([O-])[O-].[Pb+2] [Pb(II)], the “mRNA expressions of ACBP1 to ACBP5 in roots” value [4] was “increase” and the “transcript of ACBP6 in roots” value [5] was “little change”.

B1: ACBP2 (protein)
chain: MGDWAQLAQSVILGLIFSYLLAKLISIVVTFKEDNLSLTRHPEESQLEIKPEGVDSRRLDSSCGGFGGEADSLVAEQGSSRSDSVAGDDSEEDDDWEGVESTELDEAFSAATLFVTTAAADRLSQKVPSDVQQQLYGLYKIATEGPCTAPQPSALKMTARAKWQAWQKLGAMPPEEAMEKYIEIVTQLYPTWLDGGVKAGSRGGDDAASNSRGTMGPVFSSLVYDEESENELKIDAIHGFAREGEVENLLKSIESGIPVNARDSEGRTPLHWAIDRGHLNIAKVLVDKNADVNAKDNEGQTPLHYAVVCDREAIAEFLVKQNANTAAKDEDGNSPLDLCESDWPWIRDSAKQAD
modifications: Arabidopsis
For B1, the “binding of in vitro translated ACBP to Cd(II)” value [1, 8] was “binds Cd(II) and Cu(II) better than ACBP6”, the “binding of in vitro translated ACBP to Cu(II)” value [2, 8] was “binds Cd(II) and Cu(II) better than ACBP6” and the “binding of in vitro translated ACBP to Pb(II)” value [3] was “bind Pb(II) better than ACBP6”.

B2: (His)6-ACBP4: recombinant (His)6-ACBP4 from pRSET B-derived vector pAT184 in E. coli (protein, UniProt Q9MA55 1-668, looked up)
Acyl-CoA-binding …: MAMPRATSGPAYPERFYAAASYVGLDGSDSSAKNVISKFPDDTALLLYALYQQATVGPCNTPKPSAWRPVEQSKWKSWQGLGTMPSIEAMRLFVKILEEDDPGWYSRASNDIPDPVVDVQINRAKDEPVVENGSTFSETKTISTENGRLAETQDKDVVSEDSNTVSVYNQWTAPQTSGQRPKARYEHGAAVIQDKMYIYGGNHNGRYLGDLHVLDLKSWTWSRVETKVATESQETSTPTLLAPCAGHSLIAWDNKLLSIGGHTKDPSESMQVKVFDPHTITWSMLKTYGKPPVSRGGQSVTMVGKTLVIFGGQDAKRSLLNDLHILDLDTMTWDEIDAVGVSPSPRSDHAAAVHAERFLLIFGGGSHATCFDDLHVLDLQTMEWSRPAQQGDAPTPRAGHAGVTIGENWFIVGGGDNKSGASESVVLNMSTLAWSVVASVQGRVPLASEGLSLVVSSYNGEDVLVAFGGYNGRYNNEINLLKPSHKSTLQTKTLEAPLPGSLSAVNNATTRDIESEVEVSQEGRVREIVMDNVNPGSKVEGNSERIIATIKSEKEELEASLNKERMQTLQLRQELGEAELRNTDLYKELQSVRGQLAAEQSRCFKLEVDVAELRQKLQTLETLQKELELLQRQKAASEQAAMNAKRQGSGGVWGWLAGSPQEKDDDSP
modifications: His6 tag
notes: recombinant (His)6-ACBP4 from pRSET B-derived vector pAT184 in E. coli
In the case of B2, the “relative fluorescence intensity in the presence of Pb(II), indicative of binding to Pb(II)” value [6] is reported as “much higher than the other recombinant ACBPs”.

B3: ACBP1: in vitro translated [35S]methionine-labeled Arabidopsis ACBP1 (SEQ ID NO: 27), wheat germ extract system (protein)
chain: MADWYQLAQSIIFGLIFAYLLAKLISILLAFKDENLSLTRNHTTQSEYENLRKVETLIGISGETDSLIAEQGSLRGDEDESDDDDWEGVESTELDEAFSAATAFVAAAASDRLSQKVSNELQLQLYGLYKIATEGPCTAPQPSALKMTARAKWQAWQKLGAMPPEEAMEKYIDLVTQLYPAWVEGGSKRRNRSGEAAGPMGPVFSSLVYEEESDNELKIDAIHAFAREGEVENLLKCIENGIPVNARDSEGRTPLHWAIDRGHLNVAEALVDKNADVNAKDNEGQTSLHYAVVCEREALAEFLVKQKADTTIKDEDGNSPLDLCESEWSWMREKKDSN
modifications: Arabidopsis
For B3, the “binding of in vitro translated ACBP to Pb(II)” value [3] was “bind Pb(II) better than ACBP6; also recorded: slightly better binding than ACBP2”.

B4: (His)6-ACBP6: recombinant (His)6-ACBP6, 18.9 kDa inclusive of His-tag, from vector pAT335 in E. coli (protein, UniProt P57752 1-92, looked up)
Acyl-CoA-binding …: MGLKEEFEEHAEKVNTLTELPSNEDLLILYGLYKQAKFGPVDTSRPGMFSMKERAKWDAWKAVEGKSSEEAMNDYITKVKQLLEVAASKAST
modifications: His6 tag
notes: recombinant (His)6-ACBP6, 18.9 kDa inclusive of His-tag, from vector pAT335 in E. coli
With B4 the “relative fluorescence intensity in the presence of Pb(II), indicative of binding to Pb(II)” value [6] was “bind Pb(II) less well than ACBP1”.

B5: ACBP6: in vitro translated [35S]methionine-labeled Arabidopsis ACBP6 (SEQ ID NO: 26), 10-kDa ACBP (protein)
chain: B4 Acyl-CoA-binding …
modifications: Arabidopsis
For B5, the “binding of in vitro translated ACBP to Pb(II)” value [3] was “bind Pb(II) less well than ACBP1”.
